This passage reports Kd results from paper PMC3506534, “LL-37 Induces Polymerization and Bundling of Actin and Affects Actin Structure” (PLoS ONE, 2012).

As usually defined, the Kd is a measure of binding affinity in units of concentration.

In the assay the target is rabbit skeletal muscle α-actin (rabbit, UniProt P68135 1-377). The experiment in a line: SPR; BIACORE 3000; actin (10 µg/ml) amine-coupled to a CM5 chip, 1500-1800 RU; running buffer 10 mM HEPES pH 7.4, 150 mM NaCl, 0.005% tween 20; 25°C, 40 µl/min; LL-37 0-500 nM, 1:1 Langmuir model; sLL-37 0-2500 nM, steady state affinity model. The settings on record: both partners purified.

B1: scrambled LL-37 (peptide)
peptide: GLKLRFEFSKIKGEFLKTPEVRFRDIKLKDNRISVQR
notes: scrambled order of the residues of LL-37; same net number of positive charges; also called sLL-37; source: bought: Genemed Synthesis Inc; purified by HPLC, purity greater than 90%
B1 had a Kd of 138 µM.
